Data from patent publication US6344321, “Nucleic acid ligands which bind to hepatocyte growth factor/scatter factor (HGF/SF) or its receptor c-met” (Gilead Sciences, Inc.).

B1: 10-53 (ssRNA)
RNA: GGGAGAUAAGAAUAAACGCUCAAGGCCUCCAACCGCUAAAGGUUCCAUUCUUGUUCGACAGGAGGCUCACAACAGGC
modifications: 2'-F pyrimidines
B2: 10-1 (ssRNA)
RNA: GGGAGAUAAGAAUAAACGCUCAAAGUGAUGUGAGAGCGUGCCUCUAGUCGGUGUUCGACAGGAGGCUCACAACAGGC
modifications: 2'-F pyrimidines
B3: 10-63 (ssRNA)
RNA: GGGAGAUAAGAAUAAACGCUCAAUGUGAUGUGAGGGCGUGCUUCCUAACGGUGUUCGACAGGAGGCUCACAACAGGC
modifications: 2'-F pyrimidines
B4: 11-203 (ssRNA)
RNA: GGGAGGACGAUGCGGGGUUUUUCUUUUCUUGUUCUCUUCUUUCCCCCAGACGACUCGCCCGA
modifications: 2'-F pyrimidines
B5: 10-37 (ssRNA)
RNA: GGGAGAUAAGAAUAAACGCUCAAGUCUGAGUCCGUAGGGCGAUUUGUGUCCCUUCGACAGGAGGCUCACAACAGGC
modifications: 2'-F pyrimidines
B6: 10-2 (ssRNA)
RNA: GGGAGAUAAGAAUAAACGCUCAAGCCUGAGUUAAACAUGACGGUUUGUGACCCUUCGACAGGAGGCUCACAACAGGC
modifications: 2'-F pyrimidines
B7: 10-23 (ssRNA)
RNA: GGGAGAUAAGAAUAAACGCUCAAGUCUGAGUUGGACACAACGCAUUGAGACCCUUCGACAGGAGGCUCACAACAGGC
modifications: 2'-F pyrimidines
B8: 10-36 (ssRNA)
RNA: GGGAGAUAAGAAUAAACGCUCAACGUUAGCAUCUGAACGAUGCCCAGCCUCAAUUCGACAGGAGGCUCACAACAGGC
modifications: 2'-F pyrimidines
B9: 8-203 (ssRNA)
RNA: GGGAGGACGAUGCGGCGCGAGCCUAUUUAUGUCAUCAUGUCUGUGCAGACGACUCGCCCGA
modifications: 2'-F pyrimidines
B10: 8-215 (ssRNA)
RNA: GGGAGGACGAUGCGGCGUGAGCCUAUUUAUGUCAUCAUGUCUGGUCAGACGACUCGCCCGA
modifications: 2'-F pyrimidines
B11: 8-222 (ssRNA)
RNA: GGGAGGACGAUGCGGUGUGAACCUAUUUAUGCCAUUAUGUCUGUGCAGACGACUCGCCCGA
modifications: 2'-F pyrimidines
B12: 11-107 (ssRNA)
RNA: GGGAGGACGAUGCGGGUUCUGUGUGUCCACGUUCUUACCCCUGUGCAGACGACUCGCCCGA
modifications: 2'-F pyrimidines
B13: 10-76 (ssRNA)
RNA: GGGAGAUAAGAAUAAACGCUCAAAGUUAGGCUUUAAAGCACGAUAAUCAGCAUUCGACAGGAGGCUCACAACAGGC
modifications: 2'-F pyrimidines
B14: 10-18 (ssRNA)
RNA: GGGAGAUAAGAAUAAACGCUCAACGUGAUUCCUACCAUCAGGUACCUAUCUUGUUCGACAGGAGGCUCACAACAGGC
modifications: 2'-F pyrimidines
B15: 10-11 (ssRNA)
RNA: GGGAGAUAAGAAUAAACGCUCAACGCCUGGACCGUUUGUUUAUCCCCGUAGUCUUCGACAGGAGGCUCACAACAGGC
modifications: 2'-F pyrimidines
B16: 10-16 (ssRNA)
RNA: GGGAGAUAAGAAUAAACGCUCAAUACAGCGUGUUGGUCCCGGACGGGGACUUAUUUCGACAGGAGGCUCACAACAGGC
modifications: 2'-F pyrimidines
B17: 10-13 (ssRNA)
RNA: GGGAGAUAAGAAUAAACGCUCAAGAUCUGUUGGCGUGUCUACCCGACCCUCCUUUCGACAGGAGGCUCACAACAGGC
modifications: 2'-F pyrimidines
B18: 10-57 (ssRNA)
RNA: GGGAGAUAAGAAUAAACGCUCAACGAGCCUCCUACCGUUUAGGUACCAUCUUGUUCGACAGGAGGCUCACAACAGGC
modifications: 2'-F pyrimidines
B19: 10-40 (ssRNA)
RNA: GGGAGAUAAGAAUAAACGCUCAAUGUCGUUAGUUUAUUGACAAGGCCCGAAGUUCGACAGGAGGCUCACAACAGGC
modifications: 2'-F pyrimidines
B20: 10-49 (ssRNA)
RNA: GGGAGAUAAGAAUAAACGCUCAACCCGACCUCCUGUAACUGGUUGAGGCACUAUUCGACAGGAGGCUCACAACAGGC
modifications: 2'-F pyrimidines
B21: 10-58 (ssRNA)
RNA: GGGAGAUAAGAAUAAACGCUCAAGGGGAGGCCCUUCAGCCGUCUCCUUGACCCUUCGACAGGAGGCUCACAACAGGC
modifications: 2'-F pyrimidines
B22: 10-7 (ssRNA)
RNA: GGGAGAUAAGAAUAAACGCUCAAUGCCUUAAGAGCGGAACUCCCUGACCCACCUUCGACAGGAGGCUCACAACAGGC
modifications: 2'-F pyrimidines
B23: 10-28 (ssRNA)
RNA: GGGAGAUAAGAAUAAACGCUCAACCUGUUCUGAACGCAAAAUGGCGUGGUGGCUUCGACAGGAGGCUCACAACAGGC
modifications: 2'-F pyrimidines
B24: 10-8 (ssRNA)
RNA: GGGAGAUAAGAAUAAACGCUCAAUUGACAAGGUACCUGUUGCCUGGCGUUUCUUUCGACAGGAGGCUCACAACAGGC
modifications: 2'-F pyrimidines
B25: 10-29 (ssRNA)
RNA: GGGAGAUAAGAAUAAACGCUCAAUCUGUUGGCGUCGUUCUCCUGACCCUCCUCUUCGACAGGAGGCUCACAACAGGC
modifications: 2'-F pyrimidines
B26: 10-52 (ssRNA)
RNA: GGGAGAUAAGAAUAAACGCUCAAUCUUAUUGUGUCCAGCUUCUCCCUGCAGGCUUCGACAGGAGGCUCACAACAGGC
modifications: 2'-F pyrimidines
B27: 11-224 (ssRNA)
RNA: GGGAGGACGAUGCGGACAGCGGCGACUAGCCUGUUCAUGCCUGCCCAGACGACUCGCCCGA
modifications: 2'-F pyrimidines
B28: 8-160 (ssRNA)
RNA: GGGAGGACGAUGCGGGUCCCCGAAUUUAAAGUGCGUUUUCCUCCGGGCAGACGACUCGCCCGA
modifications: 2'-F pyrimidines
B29: 10-48 (ssRNA)
RNA: GGGAGAUAAGAAUAAACGCUCAAGAGUUCCCUGUUGACUCGCUCUCCUGACCCUUCGACAGGAGGCUCACAACAGGC
modifications: 2'-F pyrimidines
B30: 10-31 (ssRNA)
RNA: GGGAGAUAAGAAUAAACGCUCAAGGGUUCCUGAUUGACCCUGUCUCUAGACCCUUCGACAGGAGGCUCACAACAGGC
modifications: 2'-F pyrimidines
B31: 10-72 (ssRNA)
RNA: GGGAGAUAAGAAUAAACGCUCAAUGUGGCACUGUUGUCCACAAGGGCCUCAUUCGACAGGAGGCUCACAACAGGC
modifications: 2'-F pyrimidines
B32: 10-47 (ssRNA)
RNA: GGGAGAUAAGAAUAAACGCUCAAGUCAAGAGGAAAUGACACGGCUCCACUUUUAUUCGACAGGAGGCUCACAACAGGC
modifications: 2'-F pyrimidines
B33: 8-102 (ssRNA)
RNA: GGGAGGACGAUGCGGCGAGUGCCUGUUUAUGUCAUCGUCCGUCGUCAGACGACUCGCCCGA
modifications: 2'-F pyrimidines
B34: 10-62 (ssRNA)
RNA: GGGAGAUAAGAAUAAACGCUCAAGUUAGACUCAACAUGAGUCCCAGCCUCAAUUCGACAGGAGGCUCACAACAGGC
modifications: 2'-F pyrimidines
B35: 10-27 (ssRNA)
RNA: GGGAGAUAAGAAUAAACGCUCAAUUAGCCUCCGACCGUAAGGUCCUUUUCUUGUUCGACAGGAGGCUCACAACAGGC
modifications: 2'-F pyrimidines
B36: 10-3 (ssRNA)
RNA: GGGAGAUAAGAAUAAACGCUCAAGCCUGAGUUAAACAUGACGGGUUUUGUGACCCCUUUCGACAGGAGGCUCACAACAGGC
modifications: 2'-F pyrimidines

target: T1, HGF (hepatocyte growth factor/scatter factor) (UniProt P14210;P14210 P14210:32-494,P14210:495-728); experiment: filter; one or two 5' G; conditions: tags: R&D Systems
T1 sequence (P14210 32-494, chain 1 of 2): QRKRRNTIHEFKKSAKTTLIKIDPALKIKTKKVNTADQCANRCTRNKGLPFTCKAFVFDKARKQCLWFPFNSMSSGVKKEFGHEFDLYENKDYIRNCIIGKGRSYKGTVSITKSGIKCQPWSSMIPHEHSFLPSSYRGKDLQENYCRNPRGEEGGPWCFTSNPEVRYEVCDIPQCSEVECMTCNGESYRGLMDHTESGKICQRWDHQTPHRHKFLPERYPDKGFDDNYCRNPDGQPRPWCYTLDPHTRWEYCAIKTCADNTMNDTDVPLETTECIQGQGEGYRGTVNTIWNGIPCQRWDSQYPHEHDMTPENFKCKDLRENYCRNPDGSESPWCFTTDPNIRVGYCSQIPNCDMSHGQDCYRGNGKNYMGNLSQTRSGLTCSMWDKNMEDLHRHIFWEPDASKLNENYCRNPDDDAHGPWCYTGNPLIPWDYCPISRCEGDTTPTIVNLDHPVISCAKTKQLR
T1 sequence (P14210 495-728, chain 2 of 2): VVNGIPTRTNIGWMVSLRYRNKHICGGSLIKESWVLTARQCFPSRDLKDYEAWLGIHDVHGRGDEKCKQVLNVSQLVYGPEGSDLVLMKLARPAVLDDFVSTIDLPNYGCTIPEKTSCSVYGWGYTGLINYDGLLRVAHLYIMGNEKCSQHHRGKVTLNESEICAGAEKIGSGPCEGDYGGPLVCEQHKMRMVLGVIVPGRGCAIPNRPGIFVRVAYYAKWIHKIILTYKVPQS
Method: (§1) In binding reactions, RNA concentrations were kept as low as possible—between 1 and 20 pM—to ensure equilibrium in conditions of protein excess. Oligonucleotides were incubated for 15 minutes at 37° C. with varying amounts of the protein in 43 µl of the binding buffer. Thirty-two microliters of each binding mixture placed on pre-wet 0.45 µm nitrocellulose filters under suction. Each well was immediately washed with 0.5 ml binding buffer. The amount of radioactivity retained on the filters was quantitated by imaging. The radioactivity that bound to filters in the absence of protein was used for background correction. The percentage of input oligonucleotide retained on each filter spot was plotted against the corresponding log protein concentration. The nonlinear least square method was used to obtain the dissociation constant (K_d; reference Jellinek, Lynott et al. 1993, Proc. Natl. Acad. Sci. USA. 90:11227–31).

| Binder | Kd [nM] |
| --- | --- |
| GGUGAAUUCCUCUGGCUGAAAAUGACUUGUGCCA (ssRNA, 2'-F pyrimidines) [Tr31] | 9.2 |
| GGGGUGACCCUUUUUAUGACAUCGCGUCUGGCCA (ssRNA, 2'-F pyrimidines) [Tr28] | 4 |
| GGGUGACUCAAAAUGGUGAUCCUCGUUUCCGCCA (ssRNA, 2'-F pyrimidines) [Tr4] | 1.4 |
| GGAUUGAUUCACUGCAUCCUUGACUCUUCCCCCA (ssRNA, 2'-F pyrimidines) [Tr1] | 7.3 |
| GGGCGGCUCGAUGUCGUCUUAUCCCUUUGCCCCA (ssRNA, 2'-F pyrimidines) [Tr17] | 3 |
| GGAGUGAUCCUAUUUAUGCCGUCGCUUCUCGCCA (ssRNA, 2'-F pyrimidines) [Tr44] | 6.5 |
| GGGUUUGAGUGACGAUCGUCUUGUCCCAUGUGCA (ssRNA, 2'-F pyrimidines) [Tr15] | 8.8 |
| GGUGAUCACCUGUUUAUGCCAUCGUUCUGGGCCA (ssRNA, 2'-F pyrimidines) [Tr48] | 1.8 |

target: T1, HGF (hepatocyte growth factor/scatter …); experiment: filter; HBSMC, 37C; conditions: tags: R&D Systems
Method: as §1

| Binder | Kd [nM] |
| --- | --- |
| B1 | 0.31 |
| B2 | 0.094 |
| B3 | 0.19 |
| B4 | 0.26 |
| B5 | 3.05 |
| B6 | 0.069 |
| B7 | 0.33 |
| B8 | 1.94 |
| B9 | 0.14 |
| B10 | 0.077 |
| B11 | 0.13 |
| B12 | 0.14 |
| B13 | 0.17 |
| B14 | 0.3 |
| B15 | 0.61 |
| B16 | 0.21 |
| B17 | 0.72 |
| B18 | 0.14 |

| Binder | Kd [nM] |
| --- | --- |
| B19 | 0.35 |
| B20 | 0.24 |
| B21 | 0.44 |
| B22 | 1.45 |
| B23 | 0.86 |
| B24 | 0.92 |
| B25 | 1.75 |
| B26 | 0.16 |
| B27 | 0.11 |
| B28 | 0.15 |
| B29 | 0.31 |
| B30 | 1.9 |
| B31 | 0.45 |
| B32 | 0.39 |
| B33 | 0.06 |
| B34 | 0.44 |
| B35 | 0.83 |
| B36 | 0.072 |
